Results on 3 molecules are retold here after US20200017592A1 (Regeneron, published 2020).

Experiment [1] deals with T1, full-length human IL-36R on cells (human, UniProt Q9HB29 20-575).
T1 sequence (looked up): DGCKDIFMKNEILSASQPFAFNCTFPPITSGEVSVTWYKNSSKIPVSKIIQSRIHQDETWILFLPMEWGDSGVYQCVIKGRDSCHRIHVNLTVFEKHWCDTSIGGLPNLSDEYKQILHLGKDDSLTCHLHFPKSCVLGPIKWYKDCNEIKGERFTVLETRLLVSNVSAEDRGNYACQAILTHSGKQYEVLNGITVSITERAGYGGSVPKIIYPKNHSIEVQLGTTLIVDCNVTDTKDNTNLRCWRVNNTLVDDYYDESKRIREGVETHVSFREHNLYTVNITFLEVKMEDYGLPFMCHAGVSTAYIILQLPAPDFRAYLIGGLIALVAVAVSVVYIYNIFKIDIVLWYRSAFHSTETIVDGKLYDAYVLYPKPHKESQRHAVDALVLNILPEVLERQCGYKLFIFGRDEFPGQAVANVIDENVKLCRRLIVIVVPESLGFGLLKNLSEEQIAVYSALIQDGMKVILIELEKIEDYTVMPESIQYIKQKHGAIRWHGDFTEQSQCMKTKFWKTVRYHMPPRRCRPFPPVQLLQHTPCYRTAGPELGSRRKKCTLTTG
The experiment is described as follows: cell-based or functional assay.

Experiment [2] deals with T2, Macaca fascicularis IL-36R on cells (Macaca fascicularis, UniProt A0A2K5WSK9 20-558).
T2 sequence: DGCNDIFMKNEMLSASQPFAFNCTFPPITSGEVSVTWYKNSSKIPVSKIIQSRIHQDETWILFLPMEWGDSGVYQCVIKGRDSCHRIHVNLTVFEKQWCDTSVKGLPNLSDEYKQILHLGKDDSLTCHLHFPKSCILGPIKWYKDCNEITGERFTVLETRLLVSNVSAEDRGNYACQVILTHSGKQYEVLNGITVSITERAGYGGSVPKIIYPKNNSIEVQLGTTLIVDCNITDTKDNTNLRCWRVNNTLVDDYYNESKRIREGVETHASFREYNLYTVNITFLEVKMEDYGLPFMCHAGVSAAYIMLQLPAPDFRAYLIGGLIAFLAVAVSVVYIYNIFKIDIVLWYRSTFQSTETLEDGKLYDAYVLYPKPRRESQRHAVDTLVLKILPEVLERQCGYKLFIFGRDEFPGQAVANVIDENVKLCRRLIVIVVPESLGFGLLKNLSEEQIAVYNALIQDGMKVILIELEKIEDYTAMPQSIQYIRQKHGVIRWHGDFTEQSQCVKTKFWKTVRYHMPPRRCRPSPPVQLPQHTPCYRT
The experiment in a line: cell-based or functional assay.

Experiment [3] deals with T3, recombinant human IL-36R extracellular domain expressed with a C-terminal myc-myc-hexahistidine tag (human, UniProt Q9HB29 20-337).
T3 construct: also called hIL-36R-MMH; hIL-36R.mmH
The experiment in a line: SPR (Biacore 4000), mAb captured on anti-human Fc, 25°C. The protocol: (§1) Equilibrium dissociation constants (KD values) for IL-36R binding to purified anti-IL-36R antibodies were determined using a real-time surface plasmon resonance biosensor using a Biacore 4000 instrument. The Biacore sensor surface was first derivatized by amine coupling with a monoclonal mouse anti-human Fc antibody (GE, # BR-1008-39) to capture anti-IL-36R monoclonal antibodies. All binding studies were performed in 0.01 M Hepes pH 7.4, 0.15 M NaCl, 3 mM EDTA, and 0.05% v/v Surfactant Tween-20 (HBS-ET running buffer) at 25° C. and 37° C. Different concentrations of IL-36R reagents, human IL-36R extracellular domain expressed with a C-terminal myc-myc-hexahistidine tag (hIL-36R-MMH), Macaca fascicularis IL-36R extracellular domain expressed with a C-terminal myc-myc-hexahistidine tag (mfIL-36R-MMH: mROR1 signal sequence (M1-A29). Macaca fascicularis IL36R_ecto domain (D20-A336).mycmycHis6), human IL-36R extracellular domain expressed with a C-terminal mouse IgG2a Fc tag (hIL-36R-mFc: mROR1 signal sequence (M1-A29)-human IL36R (D20-Y337)-mouse IgG2aFc (E98-K330)) or an in-line fusion protein of human IL-36R extracellular domain and IL1RAcP extracellular domain expressed with mouse IgG2a Fc tag (hIL-36R-Trap-mFc: mROR1 signal sequence (M1-A29)-human IL36R ecto domain (D20-Y337)-human IL1RacP ecto domain(S21-E359)-mouse IgG2aFc) in HBS-ET running buffer (ranging from 100 nM to 3.7 nM, 3-fold dilutions) were injected over the anti-IL-36R antibody captured surface for 4 minutes at a flow rate of 30 μL/minute and their dissociation in HBS-ET running buffer was monitored for 10 minutes. Kinetic association rate constant (kₐ) and dissociation rate constant (kd) were determined by fitting the real-time sensorgrams to a 1:1 binding model using Scrubber 2.0c curve fitting software. Binding dissociation equilibrium constants (KD) and dissociative half-lives (t_{1/2}) were calculated from the kinetic rate constants as: […]

Experiment [4] addresses T3, recombinant human IL-36R extracellular …. The experiment in a line: SPR (Biacore 4000), mAb captured on anti-human Fc, 37°C. The protocol:
as §1
For orientation: Surface plasmon resonance follows binding to a sensor surface in real time, without labels.

What is called Kd is the equilibrium constant for the complex coming apart. The koff is a measure of how fast the partners let go of each other. By kon is commonly meant the rate constant with which the complex forms. Usually t½ stands for the time needed for the level to fall by half in the phase considered.

B1: H4H14732P2 (antibody, human IgG4 S228P, kappa, V domains shown)
VH: EVQLVESGGGLVQPGRSLRLSCAASGFTFDDYAMHWVRQAPGKGLEWVSGINWAGYNIDYADSVKGRFTISRDNAKNSLYLQMNSLRAEDTALYYCAKDMRGFSYGFPFDYWGQGTLVTVSS
VL: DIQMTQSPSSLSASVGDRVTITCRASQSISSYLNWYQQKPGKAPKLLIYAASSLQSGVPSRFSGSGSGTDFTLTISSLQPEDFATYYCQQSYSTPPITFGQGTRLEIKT
Turning to B1, in experiment [1], the “IC50 [M], NFκB-luciferase, 10 pM hIL-36γ” value was more than 1e-08 M; the “IC50 [M], NFκB-luciferase, 15 pM hIL-36β” value was more than 1e-08 M; the “IC50 [M], NFκB-luciferase, 20 pM hIL-36α” value was more than 1e-08 M; the “Max Inhibition (%), NFκB-luciferase, 10 pM hIL-36γ” value (from here on “Max Inhibition (%) … 10 pM hIL-36γ”) turned out to be 69%. In experiment [1], the “Max Inhibition (%), NFκB-luciferase, 15 pM hIL-36β” value turned out to be 69% and the “Max Inhibition (%), NFκB-luciferase, 20 pM hIL-36α” value (shortened to “Max Inhibition (%) … 20 pM hIL-36α”) came out at 61%. In experiment [2], the “IC50 [M], NFκB-luciferase, 300 pM hIL-36γ” value (“IC50 [M] … 300 pM hIL-36γ” below) is more than 1e-07 M; the “IC50 [M], NFκB-luciferase, 500 pM hIL-36α” value is more than 1e-07 M; the “IC50 [M], NFκB-luciferase, 600 pM hIL-36β” value (“IC50 [M] … 600 pM hIL-36β” for short) is more than 1e-07 M; the “Max Inhibition (%), NFκB-luciferase, 300 pM hIL-36γ” value (from here on “Max Inhibition (%) … 300 pM hIL-36γ”) was 36%. Besides, in experiment [2], the “Max Inhibition (%), NFκB-luciferase, 500 pM hIL-36α” value is 47% and the “Max Inhibition (%), NFκB-luciferase, 600 pM hIL-36β” value (“Max Inhibition (%) … 600 pM hIL-36β” below) was found to be 43%. For the same molecule, in experiment [3], the “100 nM hIL-36R-MMH Bound (RU)” value worked out at 26 RU, the Kd stood at 13.9 nM, the koff is 0.000569 s⁻¹ and the association rate constant (kon) stood at 41000 M⁻¹ s⁻¹. Also, the “t½” value in experiment [3] came out at 20 min. In experiment [4], the “100 nM hIL-36R-MMH Bound (RU)” value was 34 RU, the equilibrium dissociation constant (Kd) was found to be 27.6 nM, the koff stood at 0.00116 s⁻¹ and the on-rate constant (kon) was 42100 M⁻¹ s⁻¹. Moreover, in experiment [4], the “t½” value came out at 10 min.

B2: H4H14760P2 (antibody, human IgG4 S228P, kappa, V domains shown)
VH: QVQLVESGGGVVQPGKSLRLSCAASGFTFSNYGIHWVRQAPGKGLEWVAIILYDGSNQHYADSVKGRFTISRDNSKNTLYLQMNNLRAEDTAVYYCARDLDLWSGYYTNGDGMDVWGQGTTVTVSS
VL: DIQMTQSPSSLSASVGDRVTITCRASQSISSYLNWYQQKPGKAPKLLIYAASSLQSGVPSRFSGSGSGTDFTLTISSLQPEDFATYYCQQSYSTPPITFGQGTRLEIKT
As to B2, in experiment [1], the “IC50 [M], NFκB-luciferase, 10 pM hIL-36γ” value is 7e-10 M; the “IC50 [M], NFκB-luciferase, 20 pM hIL-36α” value turned out to be 4.9e-10 M; the “Max Inhibition (%) … 10 pM hIL-36γ” value was 49%; the “Max Inhibition (%) … 20 pM hIL-36α” value is 99%. In addition, in experiment [2], the “IC50 [M] … 300 pM hIL-36γ” value was more than 1e-07 M; the “IC50 [M] … 600 pM hIL-36β” value is more than 1e-07 M; the “Max Inhibition (%) … 300 pM hIL-36γ” value is 43%; the “Max Inhibition (%) … 600 pM hIL-36β” value worked out at 48%. Further, in experiment [3], the “100 nM hIL-36R-MMH Bound (RU)” value was determined as 61 RU, the dissociation constant Kd is 6.11 nM, the dissociation rate constant (koff) is 0.000415 s⁻¹ and the association rate constant (kon) was 67900 M⁻¹ s⁻¹. Further, in experiment [3], the “t½” value was 28 min. In experiment [4], the “100 nM hIL-36R-MMH Bound (RU)” value was determined as 83 RU, the equilibrium dissociation constant (Kd) is 23 nM, the koff worked out at 0.00208 s⁻¹ and the kon amounted to 90600 M⁻¹ s⁻¹. Also, the “t½” value in experiment [4] was 6 min.

B3: H4H14757P (antibody, human IgG4 S228P, kappa, V domains shown)
VH: EVQLVESGGGLVQPGRSLRLSCTASGFTFDDYAMHWVRQAPGKGLEWVSGIRWNGGSIGYVDSVKGRFTISRDNAKKSLHLQMNSLKTEDTALYYCAKDIGDILTGFYGEYGMDVWGQGTTVTVSS
VL: DIQMTQSPSSLSASEGDRVTITCRASQSISSYLNWYQQKAGKAPNLLIYAASSLQSGVPSRFSGSGSGTEYTLTISSLQPEDFATYYCQQSYIIPYTFGQGTKLEIKR
In the case of B3, in experiment [1], the “IC50 [M], NFκB-luciferase, 10 pM hIL-36γ” value came to 1.3e-10 M; the “IC50 [M], NFκB-luciferase, 20 pM hIL-36α” value came out at 1.8e-10 M; the “Max Inhibition (%) … 10 pM hIL-36γ” value was found to be 87%; the “Max Inhibition (%) … 20 pM hIL-36α” value was 101%. Further, in experiment [2], the “IC50 [M] … 300 pM hIL-36γ” value is more than 1e-07 M; the “IC50 [M], NFκB-luciferase, 500 pM hIL-36α” value was more than 1e-07 M; the “IC50 [M] … 600 pM hIL-36β” value is more than 1e-07 M; the “Max Inhibition (%) … 300 pM hIL-36γ” value amounted to 25%. Further, in experiment [2], the “Max Inhibition (%), NFκB-luciferase, 500 pM hIL-36α” value was 29% and the “Max Inhibition (%) … 600 pM hIL-36β” value was 36%. In experiment [3], the “100 nM hIL-36R-MMH Bound (RU)” value worked out at 94 RU, the dissociation constant (Kd) came to 2.18 nM, the koff came out at 0.000396 s⁻¹ and the on-rate constant (kon) is 182000 M⁻¹ s⁻¹. Moreover, the “t½” value in experiment [3] was 29 min. Besides, in experiment [4], the “100 nM hIL-36R-MMH Bound (RU)” value came out at 129 RU, the Kd stood at 5.18 nM, the off-rate (koff) came out at 0.00109 s⁻¹ and the kon is 210000 M⁻¹ s⁻¹. Also, the “t½” value in experiment [4] was 11 min.
